Experimental data taken from patent US20230032643A1 (GlaxoSmithKline, published 2023).

Legend:
[1] = target: T1, human CR2 on primary human cells (B cells in PBMCs; tonsil follicular dendritic cells) (human, UniProt P20023 21-1033); assay: flow cytometry; inhibition of serum-opsonised PnPS14 binding to CD20+ B cells in human PBMCs, mAb pre-incubated
T1 construct: Endogenous CR2 on primary human CD20+ B cells or tonsil FDCs; also called CD21
T1 sequence: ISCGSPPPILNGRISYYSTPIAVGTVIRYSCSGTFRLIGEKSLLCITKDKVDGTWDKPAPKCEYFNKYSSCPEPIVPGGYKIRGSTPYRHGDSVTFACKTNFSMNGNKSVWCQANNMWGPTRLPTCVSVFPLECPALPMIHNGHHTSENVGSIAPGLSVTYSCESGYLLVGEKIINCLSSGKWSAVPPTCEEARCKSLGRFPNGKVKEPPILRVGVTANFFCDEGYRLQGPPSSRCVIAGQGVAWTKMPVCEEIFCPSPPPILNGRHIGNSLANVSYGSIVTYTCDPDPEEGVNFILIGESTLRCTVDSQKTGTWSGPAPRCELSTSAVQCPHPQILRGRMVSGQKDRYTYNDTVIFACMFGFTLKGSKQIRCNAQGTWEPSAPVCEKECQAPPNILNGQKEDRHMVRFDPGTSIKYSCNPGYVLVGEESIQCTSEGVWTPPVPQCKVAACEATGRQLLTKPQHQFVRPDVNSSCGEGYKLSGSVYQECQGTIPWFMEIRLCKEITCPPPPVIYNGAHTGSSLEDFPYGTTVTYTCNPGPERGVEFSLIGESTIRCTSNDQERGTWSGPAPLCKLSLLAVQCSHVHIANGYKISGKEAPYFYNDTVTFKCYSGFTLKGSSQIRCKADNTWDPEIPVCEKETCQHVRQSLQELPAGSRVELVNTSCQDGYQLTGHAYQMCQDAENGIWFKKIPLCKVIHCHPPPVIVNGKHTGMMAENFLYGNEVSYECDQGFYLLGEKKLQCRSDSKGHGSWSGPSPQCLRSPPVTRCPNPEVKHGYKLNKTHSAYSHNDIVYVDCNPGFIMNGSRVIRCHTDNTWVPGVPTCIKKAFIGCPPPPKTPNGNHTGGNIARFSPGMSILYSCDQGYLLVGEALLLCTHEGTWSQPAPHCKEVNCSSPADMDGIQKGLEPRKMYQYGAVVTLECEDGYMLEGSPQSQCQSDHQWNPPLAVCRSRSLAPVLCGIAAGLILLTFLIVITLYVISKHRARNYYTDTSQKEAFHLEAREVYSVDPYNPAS

[2] = target: T1, human CR2 on primary human cells (B …); assay: flow cytometry on primary human tonsil FDCs; unlabelled mAb 1053 titrated, then saturating mAb 1053-PE (1 ug/ml)
[3] = target: T2, recombinant soluble human CR2 (human, UniProt P20023 21-971, limits assumed); assay: SPR (BIACORE T200), HEK-expressed antibody captured on Protein A, soluble CR2 as analyte, 25 C, equilibrium model
T2 construct: it includes the transmembrane and cytoplasmic parts, which a soluble form would lack; also called human CR2 antigen
T2 sequence: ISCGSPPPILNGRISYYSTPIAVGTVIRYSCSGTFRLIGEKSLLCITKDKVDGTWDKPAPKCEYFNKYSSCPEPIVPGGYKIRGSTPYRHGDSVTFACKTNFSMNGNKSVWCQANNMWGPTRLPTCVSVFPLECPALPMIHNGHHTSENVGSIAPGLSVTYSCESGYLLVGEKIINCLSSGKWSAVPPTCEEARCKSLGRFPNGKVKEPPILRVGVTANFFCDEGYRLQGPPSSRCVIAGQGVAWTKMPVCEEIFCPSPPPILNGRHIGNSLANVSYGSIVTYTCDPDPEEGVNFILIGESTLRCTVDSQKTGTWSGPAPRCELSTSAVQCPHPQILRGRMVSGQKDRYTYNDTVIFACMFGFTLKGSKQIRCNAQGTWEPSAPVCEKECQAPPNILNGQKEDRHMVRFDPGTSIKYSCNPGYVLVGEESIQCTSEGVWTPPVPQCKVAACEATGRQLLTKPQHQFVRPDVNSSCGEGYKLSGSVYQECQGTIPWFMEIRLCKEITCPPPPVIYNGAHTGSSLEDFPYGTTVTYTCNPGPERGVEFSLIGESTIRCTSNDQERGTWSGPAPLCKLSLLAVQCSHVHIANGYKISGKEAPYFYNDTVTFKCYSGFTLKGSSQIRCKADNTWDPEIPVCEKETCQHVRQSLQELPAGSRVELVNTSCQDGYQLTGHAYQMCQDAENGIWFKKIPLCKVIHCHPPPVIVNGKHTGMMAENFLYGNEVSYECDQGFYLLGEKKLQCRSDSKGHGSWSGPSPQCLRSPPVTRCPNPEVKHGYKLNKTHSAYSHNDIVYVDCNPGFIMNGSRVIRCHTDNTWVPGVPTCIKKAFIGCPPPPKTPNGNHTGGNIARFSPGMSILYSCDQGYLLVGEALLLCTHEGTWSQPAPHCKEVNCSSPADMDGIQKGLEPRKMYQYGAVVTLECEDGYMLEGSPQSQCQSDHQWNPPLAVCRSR

[4] = target: T3, recombinant soluble cynomolgus macaque CR2 (cynomolgus macaque, UniProt A0A2K5URG6 21-972); assay: as above
T3 construct: also called Cyno CR2; cyno CR2 antigen
T3 sequence: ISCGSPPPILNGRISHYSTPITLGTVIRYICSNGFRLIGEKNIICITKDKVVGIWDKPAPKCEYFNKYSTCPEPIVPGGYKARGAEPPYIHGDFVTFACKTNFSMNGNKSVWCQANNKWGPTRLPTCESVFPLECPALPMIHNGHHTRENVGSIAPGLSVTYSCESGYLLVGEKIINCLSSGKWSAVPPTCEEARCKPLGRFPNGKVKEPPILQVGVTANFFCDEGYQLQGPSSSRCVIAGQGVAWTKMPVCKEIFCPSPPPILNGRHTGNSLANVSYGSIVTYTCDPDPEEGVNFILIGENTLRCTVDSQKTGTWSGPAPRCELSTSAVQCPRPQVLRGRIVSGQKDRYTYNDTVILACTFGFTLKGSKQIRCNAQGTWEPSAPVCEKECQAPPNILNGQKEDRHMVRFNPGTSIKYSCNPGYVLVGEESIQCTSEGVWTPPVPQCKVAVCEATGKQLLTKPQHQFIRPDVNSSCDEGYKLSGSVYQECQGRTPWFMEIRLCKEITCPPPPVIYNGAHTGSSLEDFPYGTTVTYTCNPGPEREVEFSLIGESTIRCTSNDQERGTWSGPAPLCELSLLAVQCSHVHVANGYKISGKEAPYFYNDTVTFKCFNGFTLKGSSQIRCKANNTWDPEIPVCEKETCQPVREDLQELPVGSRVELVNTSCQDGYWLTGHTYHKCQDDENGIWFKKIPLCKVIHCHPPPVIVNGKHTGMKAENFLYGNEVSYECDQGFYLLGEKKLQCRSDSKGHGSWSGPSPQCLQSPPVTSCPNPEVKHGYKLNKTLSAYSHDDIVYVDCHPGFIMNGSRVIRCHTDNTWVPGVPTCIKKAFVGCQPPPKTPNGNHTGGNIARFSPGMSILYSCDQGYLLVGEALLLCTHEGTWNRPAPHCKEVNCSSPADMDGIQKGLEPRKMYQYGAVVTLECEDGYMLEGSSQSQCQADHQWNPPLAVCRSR

[5] = target: T1, human CR2 on primary human cells (B …); assay: flow cytometry; inhibition of C3dg:Streptavidin-APC complex binding to CD20+ B cells in human PBMCs, mAb pre-incubated
[6] = target: T1, human CR2 on primary human cells (B …); assay: flow cytometry; inhibition of C3dg:streptavidin-APC ligand complex binding to primary human tonsil FDCs, mAb pre-incubated

IC50 [1]: 0.0379 nM | EC50 [2]: 0.0622 nM | Kd [3]: 0.257 nM | Kd [4]: 0.287 nM | IC50 [5]: 0.0119 nM | IC50 [6]: 0.047 nM
B1: mAb 1053 (antibody, human IgG1, kappa, V domains shown)
VH: QLQLQESGPGLVKPSETLSLTCTVSGGSISSDSYYWGWIRQPPGKGLEWIGSIHYSGSTYYNPPLESRVTISVDTSKNQFSLKLSSVTAADTAVYYCAREGGPRHGWSWGQGTLVTVSS
VL: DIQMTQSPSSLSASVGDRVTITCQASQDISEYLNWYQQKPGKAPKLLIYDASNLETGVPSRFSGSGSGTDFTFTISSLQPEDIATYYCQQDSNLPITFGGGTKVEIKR
notes: CHO-expressed unless stated otherwise
